Test results published in US20180140737A1, “HAEMOSTATIC MATERIAL” (HAEMOSTATIX LIMITED, priority 2015, published 2018).

Experiments:
fibrinogen [1] = target: T1, fibrinogen (Homo sapiens, UniProt P02675+P02679); conditions: cited from earlier work
T1 sequence (P02679 27-453): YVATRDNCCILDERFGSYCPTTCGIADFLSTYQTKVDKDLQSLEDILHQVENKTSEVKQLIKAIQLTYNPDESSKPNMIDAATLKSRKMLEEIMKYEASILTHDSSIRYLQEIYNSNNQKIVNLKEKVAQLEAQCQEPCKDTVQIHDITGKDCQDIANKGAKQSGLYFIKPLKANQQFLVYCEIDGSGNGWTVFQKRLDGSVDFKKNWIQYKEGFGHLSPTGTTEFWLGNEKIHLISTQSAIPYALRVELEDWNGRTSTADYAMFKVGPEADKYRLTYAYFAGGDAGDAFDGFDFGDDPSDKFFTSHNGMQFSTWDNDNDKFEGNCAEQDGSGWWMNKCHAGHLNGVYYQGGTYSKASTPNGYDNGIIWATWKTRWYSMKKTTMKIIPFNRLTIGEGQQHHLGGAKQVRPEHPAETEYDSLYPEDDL
T1 sequence (P02675 31-491): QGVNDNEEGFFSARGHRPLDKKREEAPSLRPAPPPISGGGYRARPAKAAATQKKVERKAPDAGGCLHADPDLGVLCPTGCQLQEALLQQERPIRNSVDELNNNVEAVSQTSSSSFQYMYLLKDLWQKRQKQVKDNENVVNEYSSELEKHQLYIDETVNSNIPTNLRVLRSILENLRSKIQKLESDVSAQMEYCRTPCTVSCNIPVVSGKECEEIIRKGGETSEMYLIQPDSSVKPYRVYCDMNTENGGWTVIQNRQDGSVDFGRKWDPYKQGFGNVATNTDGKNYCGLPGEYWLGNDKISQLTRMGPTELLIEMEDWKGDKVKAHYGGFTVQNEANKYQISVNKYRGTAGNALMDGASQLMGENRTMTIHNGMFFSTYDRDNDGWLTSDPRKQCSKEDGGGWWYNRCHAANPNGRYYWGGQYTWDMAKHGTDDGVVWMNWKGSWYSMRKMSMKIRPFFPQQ
T1 sequence (P02671 20-629 partner limits assumed): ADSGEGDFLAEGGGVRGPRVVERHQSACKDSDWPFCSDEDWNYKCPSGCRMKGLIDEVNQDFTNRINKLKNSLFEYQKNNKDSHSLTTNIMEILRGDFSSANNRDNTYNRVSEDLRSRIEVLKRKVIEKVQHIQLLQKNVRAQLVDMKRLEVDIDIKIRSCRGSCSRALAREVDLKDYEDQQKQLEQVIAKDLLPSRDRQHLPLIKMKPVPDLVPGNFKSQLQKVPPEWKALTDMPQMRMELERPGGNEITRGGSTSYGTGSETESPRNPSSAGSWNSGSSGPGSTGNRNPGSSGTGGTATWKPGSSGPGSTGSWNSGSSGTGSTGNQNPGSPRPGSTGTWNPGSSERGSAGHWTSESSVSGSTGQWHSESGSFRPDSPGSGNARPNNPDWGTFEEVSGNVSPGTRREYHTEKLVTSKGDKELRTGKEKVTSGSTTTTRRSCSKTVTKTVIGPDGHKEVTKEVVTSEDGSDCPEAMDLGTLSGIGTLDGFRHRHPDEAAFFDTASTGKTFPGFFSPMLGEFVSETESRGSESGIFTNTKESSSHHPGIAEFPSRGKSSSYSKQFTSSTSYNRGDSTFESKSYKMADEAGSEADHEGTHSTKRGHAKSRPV

[2] = target: T2, purified human fibrinogen (Homo sapiens, UniProt P02675+P02679); assay: Co-polymerisation with purified human fibrinogen, clotting time (Sigma Amelung KC4 Delta coagulation analyser); type: biochemical
T2 sequence (P02679 27-453): T1 sequence (P02679 27-453)
T2 sequence (P02675 31-491): T1 sequence (P02675 31-491)
T2 sequence (P02671 20-629 partner limits assumed): T1 sequence (P02671 20-629 partner limits assumed)
Experimental: The ability of Peptide Dendrimer No. 12 to polymerise fibrinogen was assessed. 30 μl of dendrimer in solution, at concentration ranging from 0.005-2 mg/ml, was added to 100 μl purified human fibrinogen at 3 mg/ml (the level of fibrinogen found in the blood). Polymerisation of fibrinogen was analysed using a Sigma Amelung KC4 Delta coagulation analyser.
The ability of Peptide Dendrimer Nos. 4, 5, 10, 11, and 12 to copolymerise with fibrinogen was assessed using the same method described in Example 11. The concentration of each dendrimer was varied from 0.005-0.5 mg/ml.
The ability of the dendrimers to copolymerise with fibrinogen was assessed using the same method described in Example 11, for a concentration of each dendrimer ranging from 0.005-0.5mg/ml.
The ability of the dendrimers to copolymerise with fibrinogen was assessed using the same method described in Example 11, for a concentration of each dendrimer ranging from 0.005-0.5 mg/ml.
Peptide Conjugate No. 1 or 2 (2 mg/ml) was mixed with Peptide Dendrimer No. 3 or 4, and fibrinogen, and the ability of the mixtures to copolymerise with fibrinogen was assessed using the same method described in Example 11, for a concentration of each dendrimer ranging from 0.025-0.5 mg/ml.

[3] = target: T3, fibrinogen in human plasma (Homo sapiens, UniProt P02675+P02679); assay: Polymerisation of fibrinogen in human plasma (KC4 Delta coagulation analyzer); type: biochemical; conditions: 30 μL dendrimer 0.25 mg/ml added to 100 μL human plasma, 37° C
T3 construct: from tissue; host or cells: human plasma
T3 sequence (P02679 27-453): T1 sequence (P02679 27-453)
T3 sequence (P02675 31-491): T1 sequence (P02675 31-491)
T3 sequence (P02671 20-629 partner limits assumed): T1 sequence (P02671 20-629 partner limits assumed)
Experimental: The ability of several different peptide dendrimers (Nos. 4, 5, 8, 9, 10, 11, 12, 13) to polymerise fibrinogen in human plasma was tested.
30 μL of each dendrimer (at a concentration of 0.25 mg/ml) was added to 100 μL human plasma at 37° C., and polymerisation of fibrinogen was determined using a Sigma Amelung KC4 Delta coagulation analyzer.

fibrinogen [4] = target: T1, fibrinogen; assay: Clotting activity of dendrimer extracted from gamma-irradiated gelatin paste; type: biochemical; conditions: paste with SURGIFLO, extract about 0.25 mg/ml, fibrinogen 3 mg/ml, 37° C
Experimental: 2 ml of solution of Peptide Dendrimer No. 12 or 13 was mixed with SURGIFLO Haemostatic Matrix (a hydrated flowable gelatin matrix) to form a paste of each peptide. Each paste was sterilised by irradiation with ^60Co gamma rays at a dose of 30 kGy, and then stored at room temperature. Samples of the sterilised pastes were used for testing after storage for two and four weeks.
After storage, peptide dendrimers were extracted from each paste using 10 mM HEPES buffer. 30 μL of each extract (with a peptide concentration of about 0.25 mg/ml) was added to 100 μL of human fibrinogen at 3 mg/ml, and the ability of each dendrimer to polymerise fibrinogen (the ‘clotting’ activity) at 37° C. was determined using a Sigma Amelung KC4 Delta coagulation analyser. The polymerisation activity of non-irradiated control samples was also determined.

GPRPFPA
binding preference for hole 'a' / hole 'b' of fibrinogen (fibrinogen [1]): binds with high preference for hole ‘a’ in fibrinogen

GPRPG
binding preference for hole 'a' / hole 'b' of fibrinogen (fibrinogen [1]): binds to hole ‘a’ and hole ‘b’ of fibrinogen, but with some preference for hole ‘a’

GHRPY
binding preference for hole 'a' / hole 'b' of fibrinogen (fibrinogen [1]): binds strongly and preferentially to the ‘b’ hole of fibrinogen

GPRP
binding preference for hole 'a' / hole 'b' of fibrinogen (fibrinogen [1]): binds strongly and preferentially to the ‘a’ hole of fibrinogen

Peptide Dendrimer No. 12 (peptide GPRPG; chain KKKKK)
ability to copolymerise with fibrinogen ([2]; dendrimer 0.005-2 mg/ml, fibrinogen 3 mg/ml): able to copolymerise with fibrinogen almost instantaneously
clotting ([2]; dendrimer in the range ~0.02-0.5 mg/ml): almost instantaneous clotting
ability to polymerise fibrinogen in human plasma [3]: able to polymerise fibrinogen in human plasma
clotting time [3]: less than one second
Clotting activity (seconds), Storage for 2 weeks post irradiation (fibrinogen [4]; 30 kGy gamma, 2 weeks room temperature): 1 s
Clotting activity (seconds), Storage for 4 weeks post irradiation (fibrinogen [4]; 30 kGy gamma, 4 weeks room temperature): 1 s
Clotting activity (seconds), Non-irradiated control (fibrinogen [4]; not irradiated): 1 s
